Consider nine sequences from the DeepSol protein solubility set.

The nature of this series: soluble on expression in E. coli; label from the status in PepcDB or PDB records.
On to “GMSDDLTDAQTAAIPEGFSQLNWSRGFGRQIGPLFEHREGPGQARLAFRVEEHHTNGLGNCHGGMLMSFADMAWGRIISLQKSYSWVTVRLMCDFLSGAKLGDWVEGEGELISEEDMLFTVRGRIWAGERTLITGTGVFKALSARKPRPGELAYKEEA”, for which the “soluble on expression in E. coli” value was “soluble”.
With “MKDWQLPSHSGPYELRIEVQPKSHHRAHYETEGSRGAVKASAGGHPIVQLHGYLENEPLMLQLFIGTADDRLLRPHAFYQVHRITGKTVSTTSHEAILSNTKVLEIPLLPENSMRAVIDCAGILKLRNSDIELRKGETDIGRKNTRVRLVFRVHVPQPSGRTLSLQVASNPIECSQRS”, the “soluble on expression in E. coli” value was “soluble”.
As to “MQALNSISSLQTSASLFPVSLNSDVSANTSTSSKELKAVIDQLVQALTQSGQLDETSPLGKMLAKAMAADGKSANSIDDITASLDKLIHEKLGDNFGASAGIGAGGGGGGIGGAGSGSGVGGGLSSDAGAGQSDLMSQVLNGLGKAVLDDLLTPSGEGGTTFSSDDMPTLEKVAQFMDDNKAQFPTRDGGSWMNELKEDNGLDAQETAQFRSALDVIGQQLGQQQGDASGVTSGGGLGSPVSDSSLGNPAIDANTGPAANGNASVDVGQLIGQLIDRGLQSVSSGGGLGTPVDNSTQPTGGTPAANPTGNVSNQDLGQLLSGLLQRGLEATLQDAGNTGADLQSSAAQVAAQLINALLQGTNNQTNQAVALEHHHHHH”, the “soluble on expression in E. coli” value is on record as “soluble”.
Regarding “SALSCSLQGPPEGSIENLINTISRDVTTLQSYMQRRKEEYDCILKTCPVCGAVEEYAFSTVSPTATFEQLNPENRILYELQQINEQRRTLYEDIVSVQQKPECELCLLCALHESAFECGATPTANSFTSQVQSQHTQQQQTPVFSESVVPRPTILSNKTRVFVV”, the “soluble on expression in E. coli” value is on record as “soluble”.
For “MSEEKYNYLDMHLSRKGSIYDSLIHLKPDNENKFGLDENSDICRTLSNYADYSTKKVKYFVNKRFSEIENIEKNIEDIDYSAFKYFRTLPPKYSDENDIRNNIIFNNNNIYIYAENKNGTLNEQACISISPDNNIIYCSTKGRRYTIGGHAGIQKNLNNEYNFLDENNFISPQNSIKTYTYDALDSSDLSSSFPKMNLIKTNDVLDDTNTNRINTANIFNEHIIMNSCESSNLNTTKCLSKNLSVQKLFKYYKKCSQDLEHEQRICKPCAHVYNGSTCMNGDECSFCHHPDHVLISAKKWKKLVKNNMEKLNILLHILRNPDDVNANFLNEMIKQNTKNFKKNKKINNIKNNTIINMYNQNIRHSNSNNNTINDMNNNNINKRHNKNRIFYFPQRNTDNILRPPYNNYESNETTDMYKNNYQVRNCNFSPYHMNM” the value was “not soluble”.
Regarding “MSLKVWITGAGGMMGSHLAEMLLAAGHDVYATYCRPTIDPSDLQFNGAEVDITDWCSVYDSIATFRPDAVFHLAAQSYPAVSWARPVETLTTNMVGTAIVFEALRRVRPHAKIIVAGSSAEYGFVDPSEVPINERRELRPLHPYGVSKAATDMLAYQYHKSYGMHTVVARIFNCTGPRKVGDALSDFVRRCTWLEHHPEQSAIRVGNLKTKRTIVDVRDLNRALMLMLDKGEAGADYNVGGSIAYEMGDVLKQVIAACKRDDIVPEVDPALLRPTDEKIIYGDCSKLAAITGWQQEICLTQTIADMFDYWRSKSESAEGHHHHHH”, the “soluble on expression in E. coli” value is recorded as “soluble”.
Turning to “MFSLRDAKCGQTVKVVKLHGTGALKRRIMDMGITRGCEIYIRKVAPLGDPIQINVRGYELSLRKSAAEMIEVE”, the “soluble on expression in E. coli” value is “not soluble”.
For “HRPLNPAMVAFSNDPLLNDLALNSSYSLLFAVNNMKSEKSAEQFYGKMDNQKMLDLVRASSTKIDFDPTLLPTMNSNPATYQGKRKNLVILLQESLGAQFVGSLGGLPLTPNLDELMQEGWQFTQMYATGTRSVRGIEAVTTGFPPSPSRAVVKLSKSQTGFFTIADLLKEQGYHTQFIYGGEANFDNMKTFFFGNGFDQIVEEKNYTNPGFVGSWGVSDEDLYNKADEEFERLSKGDKPFFSLVFTSSNHSPYEYPEGKIEQYDSEHMTRNNAVKYSDYALGTFFDKAKKSSYWDDTIFIVIADHDARVFGANLVPVKHFHIPALIIGKDIQPRKDDRIANNIDMPPTLLSLIGVDAKTPMIGRDLTKPLAREDERAMMQYDKNFGYLTRDNLVVLSPGEKVSTMEYDFESQTMKPLEVDESVIDRAKANALFASKAYQNNWYSSKRTN” the value was “soluble”.
Take “MHFTPALKPGKLLKRYKRFLADVQLEDGSEITVHCPNTGSMRNCLFPGETLWFSTSSNTKRKYAHTWELMTTPTGALIGIHSGNANALVEEALNKGIITELTGYDSLRREVKYGDENSRIDILLECAQKTACYIEVKSCTLQENGQGYFPDAVSLRGQKHLRELMHMASLGHRAVLLFVVQHTDIMSVAPAAHIDPEYANLLKKSVLSGVEVLAYRCEISPSEIHLAQSCPVRV”: the “soluble on expression in E. coli” value is “soluble”.
